Patent US20210032365A1 (Chugai, published 2021)

T1: human C1s (human, UniProt P09871 16-688)
T1 construct: also called hC1s; serum-derived human C1s (CompTech)
T1 sequence: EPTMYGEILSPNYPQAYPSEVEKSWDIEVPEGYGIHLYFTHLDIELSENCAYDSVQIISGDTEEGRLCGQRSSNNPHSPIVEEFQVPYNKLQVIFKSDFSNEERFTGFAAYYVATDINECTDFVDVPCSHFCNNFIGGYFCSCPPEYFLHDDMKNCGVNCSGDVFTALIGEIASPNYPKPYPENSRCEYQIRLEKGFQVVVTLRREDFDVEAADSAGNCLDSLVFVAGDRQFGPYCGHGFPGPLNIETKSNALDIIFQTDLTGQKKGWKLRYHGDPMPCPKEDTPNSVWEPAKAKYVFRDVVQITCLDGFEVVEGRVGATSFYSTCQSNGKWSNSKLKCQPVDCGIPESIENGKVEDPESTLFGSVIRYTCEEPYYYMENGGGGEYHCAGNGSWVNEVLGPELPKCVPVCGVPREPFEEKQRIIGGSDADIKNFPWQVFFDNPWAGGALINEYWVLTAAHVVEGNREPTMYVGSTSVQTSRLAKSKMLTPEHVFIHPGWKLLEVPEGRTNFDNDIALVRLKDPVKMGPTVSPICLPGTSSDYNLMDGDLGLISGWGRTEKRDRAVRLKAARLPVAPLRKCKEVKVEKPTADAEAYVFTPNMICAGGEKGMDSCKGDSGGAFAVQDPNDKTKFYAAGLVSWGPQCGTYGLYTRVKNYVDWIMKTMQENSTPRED


target: T1, human C1s; experiment: SPR, Ab captured; pH 7.4, 1.2 mM Ca
Procedure: Each antibody was captured onto the sensor surface by protein A/G. Antibody capture levels were aimed at 200 resonance unit (RU). Serum-derived human C1s (CompTech) or recombinant C1s prepared in EXAMPLE 1 was injected at 50 nM, followed by dissociation. The sensor surface was regenerated in each cycle with 10 mM Glycine-HCl, pH 1.5. […] The ratio of KD 5.8+ to KD 7.4+(“KD 5+/7+”) and that of KD 5.8− to KD 7.4+(“KD 5−/7+”) were calculated. When the KD 5+/7+ or KD 5−/7+ of a variant is larger than that of the parent antibody IPN009VH2-SG4GK/IPN009VK3-SK1, that variant is considered to be “pH”- or “pH and Ca”-dependent, respectively. When binding response in 5(+) buffer and/or in 5(−) buffer of a variant is much lower than that of IPN09VH2/IPN009VK3, that variant is also considered as “pH”- and/or “pH and Ca”-dependent. Therefore, such mutations are effective to generate “pH”- and/or “pH and Ca”-dependent antibody. To further enhance “pH” and/or “pH and Ca” dependency, a combination of histidine mutations was conducted. Antibodies with combinations of histidine mutations were evaluated using Biacore by the method described above.
C1_1IPN92H0033 (SEQ ID NO: 17)-SG4GK/IPN93L0024 (SEQ ID NO: 18)-SK1 (IPN92H0033/IPN93L0024) was selected for further optimization. Histidine, Lysine, Arginine, aspartic acid, glutamic acid, and glutamine scanning was conducted for CDRs and certain positions of FRs of IPN92H0033/IPN93L0024. Variants with a mutation were generated and purified, and evaluated using Biacore by the method mentioned above. All variants were evaluated using Biacore as mentioned above. Mutations that improved “pH” and/or “pH and Ca” dependency were selected for the combination.

Binder	Kd	koff	kon
C1_IPN92H0033-SG4GK/IPN93L0072-SK1 (antibody, human IgG4 S228P, kappa, name in Kabat numbering, V domains shown, also called IPN92H0033/IPN93L0072) VH: EVMLVESGGGLVKPGGSLRLSCAASGFTFSNYAMSWVRQAPGKGLEWVATISSGGSHTYYLDSVKGRFTISRDNSKDTLYLQMNSLRAEDTALYYCARLFTGHAMDYWGQGTLVTVSS VL: QIVLTQSPATLSLSPGERATLSCTASSSVKSSYLHWYQQKPGKAPKLWIYSTSNLASGVPSRFSGSGSGTDYTLTISSLQPEDFATYYCHQYYRLHPITFGQGTKLEIKR	1.37 nM	0.000567 s⁻¹	413000 M⁻¹ s⁻¹
C1_IPN92H0061-SG4GK/IPN93L0024-SK1 (antibody, human IgG4 S228P, kappa, name in Kabat numbering, V domains shown, also called IPN92H0061/IPN93L0024) VH: EVMLVESGGGLVKPGGSLRLSCAASGFTKSNYAMSWVRQAPGKGLEWVATISSGGSHTYYLDSVKGRFTISRDNSKDTLYLQMNSLRAEDTALYYCARLFTGHAMDYWGQGTLVTVSS VL: QIVLTQSPATLSLSPGERATLSCTASSSVSSSYLHWYQQKPGKAPKLWIYSTSNLASGVPSRFSGSGSGTDYTLTISSLQPEDFATYYCHQYYRLHPITFGQGTKLEIKR	6.85 nM	0.00161 s⁻¹	236000 M⁻¹ s⁻¹
C1_IPN92H0079-SG4GK/IPN93L0024-SK1 (antibody, human IgG4 S228P, kappa, name in Kabat numbering, V domains shown, also called IPN92H0079/IPN93L0024) VH: EVMLVESGGGLVKPGGSLRLSCAASGFTFSNKAMSWVRQAPGKGLEWVATISSGGSHTYYLDSVKGRFTISRDNSKDTLYLQMNSLRAEDTALYYCARLFTGHAMDYWGQGTLVTVSS VL: QIVLTQSPATLSLSPGERATLSCTASSSVSSSYLHWYQQKPGKAPKLWIYSTSNLASGVPSRFSGSGSGTDYTLTISSLQPEDFATYYCHQYYRLHPITFGQGTKLEIKR	3.36 nM	0.00125 s⁻¹	373000 M⁻¹ s⁻¹
C1_IPN92H0033-SG4GK/IPN93L0090-SK1 (antibody, human IgG4 S228P, kappa, name in Kabat numbering, V domains shown, also called IPN92H0033/IPN93L0090) VH: EVMLVESGGGLVKPGGSLRLSCAASGFTFSNYAMSWVRQAPGKGLEWVATISSGGSHTYYLDSVKGRFTISRDNSKDTLYLQMNSLRAEDTALYYCARLFTGHAMDYWGQGTLVTVSS VL: QIVLTQSPATLSLSPGERATLSCTASSSVSSSKLHWYQQKPGKAPKLWIYSTSNLASGVPSRFSGSGSGTDYTLTISSLQPEDFATYYCHQYYRLHPITFGQGTKLEIKR	1.4 nM	0.000676 s⁻¹	482000 M⁻¹ s⁻¹
C1_IPN92H0091-SG4GK/IPN93L0024-SK1 (antibody, human IgG4 S228P, kappa, name in Kabat numbering, V domains shown, also called IPN92H0091/IPN93L0024) VH: EVMLVESGGGLVKPGGSLRLSCAASGFTFSNYAKSWVRQAPGKGLEWVATISSGGSHTYYLDSVKGRFTISRDNSKDTLYLQMNSLRAEDTALYYCARLFTGHAMDYWGQGTLVTVSS VL: QIVLTQSPATLSLSPGERATLSCTASSSVSSSYLHWYQQKPGKAPKLWIYSTSNLASGVPSRFSGSGSGTDYTLTISSLQPEDFATYYCHQYYRLHPITFGQGTKLEIKR	2.69 nM	0.000746 s⁻¹	277000 M⁻¹ s⁻¹
C1_IPN92H0117-SG4GK/IPN93L0024-SK1 (antibody, human IgG4 S228P, kappa, name in Kabat numbering, V domains shown, also called IPN92H0117/IPN93L0024) VH: EVMLVESGGGLVKPGGSLRLSCAASGFTFSNYAMSWVRQAPGKGLEWVATISQGGSHTYYLDSVKGRFTISRDNSKDTLYLQMNSLRAEDTALYYCARLFTGHAMDYWGQGTLVTVSS VL: QIVLTQSPATLSLSPGERATLSCTASSSVSSSYLHWYQQKPGKAPKLWIYSTSNLASGVPSRFSGSGSGTDYTLTISSLQPEDFATYYCHQYYRLHPITFGQGTKLEIKR	3.41 nM	0.000863 s⁻¹	253000 M⁻¹ s⁻¹
C1_IPN92H0145-SG4GK/IPN93L0024-SK1 (antibody, human IgG4 S228P, kappa, name in Kabat numbering, V domains shown, also called IPN92H0145/IPN93L0024) VH: EVMLVESGGGLVKPGGSLRLSCAASGFTFSNYAMSWVRQAPGKGLEWVATISSGGSRTYYLDSVKGRFTISRDNSKDTLYLQMNSLRAEDTALYYCARLFTGHAMDYWGQGTLVTVSS VL: QIVLTQSPATLSLSPGERATLSCTASSSVSSSYLHWYQQKPGKAPKLWIYSTSNLASGVPSRFSGSGSGTDYTLTISSLQPEDFATYYCHQYYRLHPITFGQGTKLEIKR	4.71 nM	0.00157 s⁻¹	333000 M⁻¹ s⁻¹
C1_IPN92H0144-SG4GK/IPN93L0024-SK1 (antibody, human IgG4 S228P, kappa, name in Kabat numbering, V domains shown, also called IPN92H0144/IPN93L0024) VH: EVMLVESGGGLVKPGGSLRLSCAASGFTFSNYAMSWVRQAPGKGLEWVATISSGGSKTYYLDSVKGRFTISRDNSKDTLYLQMNSLRAEDTALYYCARLFTGHAMDYWGQGTLVTVSS VL: QIVLTQSPATLSLSPGERATLSCTASSSVSSSYLHWYQQKPGKAPKLWIYSTSNLASGVPSRFSGSGSGTDYTLTISSLQPEDFATYYCHQYYRLHPITFGQGTKLEIKR	3.68 nM	0.00126 s⁻¹	343000 M⁻¹ s⁻¹

Further lines, results first:

Kd	koff	kon	Binder
2.06 nM	0.000621 s⁻¹	302000 M⁻¹ s⁻¹	C1_IPN92H0159-SG4GK/IPN93L0024-SK1 (antibody, human IgG4 S228P, kappa, name in Kabat numbering, V domains shown, also called IPN92H0159/IPN93L0024) VH: EVMLVESGGGLVKPGGSLRLSCAASGFTFSNYAMSWVRQAPGKGLEWVATISSGGSHTYDLDSVKGRFTISRDNSKDTLYLQMNSLRAEDTALYYCARLFTGHAMDYWGQGTLVTVSS VL: QIVLTQSPATLSLSPGERATLSCTASSSVSSSYLHWYQQKPGKAPKLWIYSTSNLASGVPSRFSGSGSGTDYTLTISSLQPEDFATYYCHQYYRLHPITFGQGTKLEIKR
2.03 nM	0.000689 s⁻¹	340000 M⁻¹ s⁻¹	C1_IPN92H0157-SG4GK/IPN93L0024-SK1 (antibody, human IgG4 S228P, kappa, name in Kabat numbering, V domains shown, also called IPN92H0157/IPN93L0024) VH: EVMLVESGGGLVKPGGSLRLSCAASGFTFSNYAMSWVRQAPGKGLEWVATISSGGSHTRYLDSVKGRFTISRDNSKDTLYLQMNSLRAEDTALYYCARLFTGHAMDYWGQGTLVTVSS VL: QIVLTQSPATLSLSPGERATLSCTASSSVSSSYLHWYQQKPGKAPKLWIYSTSNLASGVPSRFSGSGSGTDYTLTISSLQPEDFATYYCHQYYRLHPITFGQGTKLEIKR
1.52 nM	0.000558 s⁻¹	368000 M⁻¹ s⁻¹	C1_IPN92H0160-SG4GK/IPN93L0024-SK1 (antibody, human IgG4 S228P, kappa, name in Kabat numbering, V domains shown, also called IPN92H0160/IPN93L0024) VH: EVMLVESGGGLVKPGGSLRLSCAASGFTFSNYAMSWVRQAPGKGLEWVATISSGGSHTYELDSVKGRFTISRDNSKDTLYLQMNSLRAEDTALYYCARLFTGHAMDYWGQGTLVTVSS VL: QIVLTQSPATLSLSPGERATLSCTASSSVSSSYLHWYQQKPGKAPKLWIYSTSNLASGVPSRFSGSGSGTDYTLTISSLQPEDFATYYCHQYYRLHPITFGQGTKLEIKR
1.77 nM	0.000512 s⁻¹	289000 M⁻¹ s⁻¹	C1_IPN92H0165-SG4GK/IPN93L0024-SK1 (antibody, human IgG4 S228P, kappa, name in Kabat numbering, V domains shown, also called IPN92H0165/IPN93L0024) VH: EVMLVESGGGLVKPGGSLRLSCAASGFTFSNYAMSWVRQAPGKGLEWVATISSGGSHTYYDDSVKGRFTISRDNSKDTLYLQMNSLRAEDTALYYCARLFTGHAMDYWGQGTLVTVSS VL: QIVLTQSPATLSLSPGERATLSCTASSSVSSSYLHWYQQKPGKAPKLWIYSTSNLASGVPSRFSGSGSGTDYTLTISSLQPEDFATYYCHQYYRLHPITFGQGTKLEIKR
2.05 nM	0.000765 s⁻¹	374000 M⁻¹ s⁻¹	C1_IPN92H0147-SG4GK/IPN93L0024-SK1 (antibody, human IgG4 S228P, kappa, name in Kabat numbering, V domains shown, also called IPN92H0147/IPN93L0024) VH: EVMLVESGGGLVKPGGSLRLSCAASGFTFSNYAMSWVRQAPGKGLEWVATISSGGSHDYYLDSVKGRFTISRDNSKDTLYLQMNSLRAEDTALYYCARLFTGHAMDYWGQGTLVTVSS VL: QIVLTQSPATLSLSPGERATLSCTASSSVSSSYLHWYQQKPGKAPKLWIYSTSNLASGVPSRFSGSGSGTDYTLTISSLQPEDFATYYCHQYYRLHPITFGQGTKLEIKR
1.8 nM	0.000545 s⁻¹	303000 M⁻¹ s⁻¹	C1_IPN92H0162-SG4GK/IPN93L0024-SK1 (antibody, human IgG4 S228P, kappa, name in Kabat numbering, V domains shown, also called IPN92H0162/IPN93L0024) VH: EVMLVESGGGLVKPGGSLRLSCAASGFTFSNYAMSWVRQAPGKGLEWVATISSGGSHTYKLDSVKGRFTISRDNSKDTLYLQMNSLRAEDTALYYCARLFTGHAMDYWGQGTLVTVSS VL: QIVLTQSPATLSLSPGERATLSCTASSSVSSSYLHWYQQKPGKAPKLWIYSTSNLASGVPSRFSGSGSGTDYTLTISSLQPEDFATYYCHQYYRLHPITFGQGTKLEIKR
2.12 nM	0.000771 s⁻¹	364000 M⁻¹ s⁻¹	C1_IPN92H0156-SG4GK/IPN93L0024-SK1 (antibody, human IgG4 S228P, kappa, name in Kabat numbering, V domains shown, also called IPN92H0156/IPN93L0024) VH: EVMLVESGGGLVKPGGSLRLSCAASGFTFSNYAMSWVRQAPGKGLEWVATISSGGSHTKYLDSVKGRFTISRDNSKDTLYLQMNSLRAEDTALYYCARLFTGHAMDYWGQGTLVTVSS VL: QIVLTQSPATLSLSPGERATLSCTASSSVSSSYLHWYQQKPGKAPKLWIYSTSNLASGVPSRFSGSGSGTDYTLTISSLQPEDFATYYCHQYYRLHPITFGQGTKLEIKR
